The record followed here is US20060211084A1 (TH NITRATE ELIMINATION, published 2006).

The data set concerns the molecule itself. Description: gel filtration chromatography (self-association). (Size exclusion chromatography separates by hydrodynamic size, large species first.)

B1: simplified eukaryotic nitrate reductase (S-NaR1) (enzyme)
chain: MDSIVTEVTYGLEIKKIKDITELPFPVRQDSPLTEVLPTDLKTKDNFVARDPDLLRLTGSHPFNSEPPLTKLYDSGFLTPVSLHFVRNHGPVPYVPDENILDWEVSIEGMVETPYKIKLSDIMEQFDIYSTPVTMVCAGNRRKEQNMVKKGAGFNWGAAGTSTSLWTGCMLGDVIGKARPSKRARFVWMEGADNPANGAYRTCIRLSWCMDPERCIMIAYQQNGEWLHPDHGKPLRVVIPGVIGGRSVKWLKKLVVSDRPSENWYHYFDNRVLPTMVTPEMAKSDDRWWKDERYAIYDLNLQTIICKPENQQVIKISEDEYEIAGFGYNGGGVRIGRIEVSLDKGKSWKLADIDYPEDRYREAGYFRLFGGLVNVCDRMSCLCWCFWKLKVPLSELARSKDILIRGMDERMMVQPRTMYWNVTSMLNNWWYRVAIIREGESLRFEHPVVANKPGGWMDRVKAEGGDILEQKLISEEDLNSAVDHHHHHH
notes: Expressed in Pichia pastoris and purified by nickel IMAC; also called nitrate-reducing portion of Pichia angusta NAD(P)H: nitrate reductase
Consider B1, for which the binding result was “binds”.
